From patent US20050271651A1, “Inhibition of bright function as a treatment for excessive immunoglobulin production” (Oklahoma Medical Research Foundation, published 2005) come the findings set out here.

T1: mouse Bright, native (untagged) wild-type (mouse) (UniProt Q62431)
T1 sequence (looked up): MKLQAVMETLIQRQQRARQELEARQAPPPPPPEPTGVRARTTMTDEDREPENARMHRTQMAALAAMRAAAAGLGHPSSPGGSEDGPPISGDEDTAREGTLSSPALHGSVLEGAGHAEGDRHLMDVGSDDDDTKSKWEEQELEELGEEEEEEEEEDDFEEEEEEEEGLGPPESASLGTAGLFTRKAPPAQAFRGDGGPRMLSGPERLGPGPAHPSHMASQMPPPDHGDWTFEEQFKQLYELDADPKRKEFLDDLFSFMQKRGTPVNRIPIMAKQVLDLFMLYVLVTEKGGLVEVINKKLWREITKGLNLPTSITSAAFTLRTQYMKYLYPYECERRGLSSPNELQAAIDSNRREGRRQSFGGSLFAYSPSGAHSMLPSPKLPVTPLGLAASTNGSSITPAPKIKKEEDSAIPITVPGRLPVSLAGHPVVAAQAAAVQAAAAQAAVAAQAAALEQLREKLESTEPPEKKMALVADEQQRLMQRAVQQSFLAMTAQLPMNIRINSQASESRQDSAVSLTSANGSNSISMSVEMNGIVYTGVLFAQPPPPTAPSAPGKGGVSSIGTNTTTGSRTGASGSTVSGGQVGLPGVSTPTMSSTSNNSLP

T2: Bright (ARID3A/Dril1) (Homo sapiens, UniProt Q99856 SEQ:1-593)
T2 sequence: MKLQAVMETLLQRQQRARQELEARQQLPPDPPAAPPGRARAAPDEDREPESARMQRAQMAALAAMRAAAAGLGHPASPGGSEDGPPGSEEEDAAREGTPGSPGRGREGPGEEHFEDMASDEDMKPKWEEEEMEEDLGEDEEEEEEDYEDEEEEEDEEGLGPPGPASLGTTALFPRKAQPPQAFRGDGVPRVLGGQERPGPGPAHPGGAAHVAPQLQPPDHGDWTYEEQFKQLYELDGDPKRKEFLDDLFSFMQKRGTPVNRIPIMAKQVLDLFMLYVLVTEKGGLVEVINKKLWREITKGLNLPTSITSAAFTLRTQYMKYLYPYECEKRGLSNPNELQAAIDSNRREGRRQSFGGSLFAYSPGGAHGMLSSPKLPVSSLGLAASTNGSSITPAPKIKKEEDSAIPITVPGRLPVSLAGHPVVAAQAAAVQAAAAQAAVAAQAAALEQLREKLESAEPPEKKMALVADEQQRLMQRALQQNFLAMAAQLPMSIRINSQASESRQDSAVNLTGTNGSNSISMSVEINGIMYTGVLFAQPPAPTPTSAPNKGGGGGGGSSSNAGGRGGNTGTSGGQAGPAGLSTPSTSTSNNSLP

B1: mutated Bright site competitor (dsDNA)
DNA 1: TAAGTATAAATATGTACATGAGTACACCCTCCACTTATTTATCTTA
DNA 2: TAAGATAAATAAGTGGAGGGTGTACTCATGTACATATTTATACTTA
B2: mouse Bright, native (untagged) wild-type (other, UniProt Q62431 1-601, looked up)
chain: T1 sequence (looked up)
notes: range 1-601; Untagged protein, tested in three forms: expressed in CHO cells, in vitro translated, or endogenous in the mouse B cell lines BCg3R-1d and M12g3Ri; Found as a dimer in solution by size exclusion chromatography; also called native Bright; wild-type Bright
B3: mouse Bright double point mutant (W299A and Y330A), C-terminal myc-his tagged (other, UniProt Q62431 1-601, looked up)
chain: T1 sequence (looked up) with W299A, Y330A
notes: range 1-601; also called DP; DP Bright; not shown: C-terminal myc-his tag from vector pcDNA4/TO/myc-His B
B4: mouse Bright F317A, C-terminal myc-his tagged (other, UniProt Q62431 1-601, looked up)
chain: T1 sequence (looked up) with F317A
notes: range 1-601; not shown: C-terminal myc-his tag from vector pcDNA4/TO/myc-His B
B5: mouse Bright W299A, C-terminal myc-his tagged (other, UniProt Q62431 1-601, looked up)
chain: T1 sequence (looked up) with W299A
notes: as for B4
B6: mouse Bright Y330A, C-terminal myc-his tagged (other, UniProt Q62431 1-601, looked up)
chain: T1 sequence (looked up) with Y330A
notes: as for B4
B7: mouse Bright REKLES mutant (REKLES at amino acids 455-460 changed to AEALEA), C-terminal myc-his tagged (other, UniProt Q62431 1-601, looked up)
chain: T1 sequence (looked up) with R455A, K457A, S460A
notes: as for B4
B8: human Bright (B cell regulator of IgH transcription) (other)
chain: T2 sequence
notes: Transcription factor; Tested as in vitro translated protein from a full-length clone, and as endogenous protein in nuclear extracts of the human cell lines CL01, K562 and 300212; also called Dril 1; DRIL1

Where a chain is given by its changes, count along the chain named. In names and notes the source's numbering stands.

The target in data set [1] is T1, mouse Bright, native (untagged) wild-type (mouse). As to the kind of experiment: cell-based or functional assay.
Data set [2] deals with mouse Bright, wild-type, C-terminal myc-his tagged (mouse) (UniProt Q62431). Nature of the data set: cell-based or functional assay.
A further data set deals with T2, Bright (ARID3A/Dril1). As to the kind of experiment: competition; nonspecific competitor, recombinant Bright. The following applies: tags: TNT rabbit reticulocyte lysate. As for the experimental part: (§1) Electrophoretic mobility shift assays (EMSAs). Nuclear extracts were prepared by hypotonic lysis, protein concentrations were quantified with Bradford reagents (BioRad, Richmond, Calif.), and EMSAs were performed in 4% nondenaturing acrylamide gels after incubation for 15 min at 37° C. with gamma-³²P-labeled probe, as previously described (Buchanan et al., 1995). The prototypic Bright binding site (a 150 base pair Bam HI-Fok I fragment called bf150) from the S107 V1 5′ flanking sequence (Webb et al., 1991) was used as a probe. In some instances, antibodies were added 5 min before incubation with the probe. […] A double-stranded oligo containing the 45 base pair foot-printed Bright binding site within bf150 described in Webb et al. (1991) was used as a specific competitor in increasing concentrations and a mutated version of that oligonucleotide containing the double-stranded sequence corresponding to 5′-[…]-3′ (SEQ ID NO:6) was used as a non-specific competitor. Underlined nucleotides represent changes from the prototype. Competition assays were performed as previously described (Webb et al., 1991).
To confirm that the protein complexes that reacted with anti-Bright antibodies in FIG. 2D were specific for the Bright binding site, competition experiments were performed in the presence of double-stranded oligonucleotides spanning the Bright binding motif.

Data set [3] deals with the molecule itself. Nature of the data set: size exclusion chromatography of nuclear extracts, western blot of fractions. As for the experimental part:
(§2) FIGS. 11A-B—Tagged Bright proteins dimerize with native Bright. (FIG. 11A) Nuclear extracts from cells expressing Bright protein were subjected to size exclusion chromatography and protein fractions were analyzed for Bright by western blotting (lower panel). Data are presented graphically relative to molecular weight standards in the upper panel and are representative of four experiments. (FIG. 11B) C-terminal myc-his tagged Bright was either singly or coexpressed in CHO cells with native Bright. […] Immunoprecipitations using anti-myc Ab (middle panel) and anti-Sp1 as an isotype control (bottom panel) were performed with each of the transfected extracts and developed with anti-Bright reagents. Arrows indicate immunoglobulin heavy chain cross-reactive with the secondary reagent. Data are representative of two separate experiments.
Column chromatography. Nuclear extracts from CHO cells transfected with the full-length Bright expression plasmid (Herrscher et al., 1995) were centrifuged at 10,000×g to remove aggregates and applied to a pre-calibrated Bio-Gel A 0.5 m size exclusion column (Bio-Rad, Hercules, Calif.) in 0.05 M Tris-HCl, pH 8.0, 0.1 M KCl and 20% glycerol according to the manufacturer's directions. The column was calibrated before and after use with Bio-Rad gel filtration standards to ensure maintenance of column integrity. […]

Data set [4] has as its target B2. As to the kind of experiment: co-expression in CHO cells, anti-myc immunoprecipitation, anti-Bright blot. As for the experimental part: as §2
To determine if the mutated proteins formed heterodimers with wild-type Bright, his-myc-tagged mutant forms of Bright were co-expressed in CHO cells with native wild-type Bright. Tagged proteins were distinguished from native Bright by the slight size differences in western blots (FIG. 11B) and were confirmed using anti-tag antibodies (not shown). Anti-myc antibodies were used to immunoprecipitate the tagged proteins and blots were developed with anti-Bright (FIG. 11B). In every case, a lower molecular weight band was detected that reflected the presence of native Bright.

Data set [5] concerns the molecule itself. Nature of the data set: size exclusion chromatography (not shown).
The target in data set [6] is human Btk, endogenous in the B cell lines CL01 and 300212 (human, UniProt Q06187 2-659). Nature of the data set: EMSA supershift with anti-Btk, nuclear extracts of CL01 and 300212 cells. As to the method:
FIG. 7—Btk associates with Bright in a subset of DNA-bound complexes. Mobility-shift assays were performed with nuclear extracts from two B cell lines (CL01 and 300212) and the T cell line, Molt-4. Anti-sera to CDP or the pleckstrin domain of Btk was added as in FIG. 2A-D. In some cases the anti-Btk sera was diluted 1:10 with PBS (0.1) prior to addition. Data are representative of six experiments.
as §1, with “Underlined nucleotides represent changes from the prototype. Competition assays were performed as previously described (Webb et al., 1991).” left out
A general note: A gel shift assay detects complexes by their altered migration in electrophoresis.

Chain of human Btk, endogenous in the B cell lines CL01 and 300212 (Q06187 2-659 limits assumed): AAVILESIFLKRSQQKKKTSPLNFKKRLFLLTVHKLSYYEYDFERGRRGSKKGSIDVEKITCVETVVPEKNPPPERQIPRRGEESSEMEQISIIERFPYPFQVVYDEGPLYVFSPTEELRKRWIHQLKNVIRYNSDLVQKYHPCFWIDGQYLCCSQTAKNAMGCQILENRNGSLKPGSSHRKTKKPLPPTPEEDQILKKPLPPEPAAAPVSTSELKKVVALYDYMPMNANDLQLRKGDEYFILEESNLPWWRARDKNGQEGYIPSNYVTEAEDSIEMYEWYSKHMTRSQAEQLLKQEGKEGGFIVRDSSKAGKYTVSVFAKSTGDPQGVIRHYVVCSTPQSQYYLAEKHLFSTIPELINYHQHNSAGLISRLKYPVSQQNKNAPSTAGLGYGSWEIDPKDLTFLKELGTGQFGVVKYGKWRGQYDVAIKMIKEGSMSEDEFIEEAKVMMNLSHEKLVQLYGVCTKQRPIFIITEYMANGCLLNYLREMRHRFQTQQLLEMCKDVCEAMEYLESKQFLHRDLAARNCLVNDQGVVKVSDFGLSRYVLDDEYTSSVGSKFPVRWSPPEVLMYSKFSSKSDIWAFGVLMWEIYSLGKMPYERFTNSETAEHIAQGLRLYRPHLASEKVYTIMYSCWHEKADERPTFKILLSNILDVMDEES

For the molecule “Bruton's tyrosine kinase (Btk), wild-type, ectopically expressed or recombinant (enzyme)”, the Bright DNA-binding activity remaining after competitor DNA (EMSA, in vitro translated Bright plus recombinant Btk) in data set [1] is below 50 % reduction.

The molecule Btk xid mutant (R28C) (enzyme) registered a V1 transcription relative to wild-type Btk (Real Time PCR, CHO cells) in data set [2] of 50%.

Regarding B1, the binding result with Bright (ARID3A/Dril1) is listed as “no binding”.

B2: the binding result in data set [3] is “binds”.

B3: in data set [4], the binding result is “binds”.

For the molecule B4, the binding result in data set [4] is given as “binds”.

Regarding B5, the binding result in data set [4] is recorded as “binds”.

B6: the binding result in data set [4] is listed as “binds”.

For the molecule B7, the binding result in data set [4] and in data set [5] was “binds” throughout.

With B8, the binding result in data set [6] is “binds”.
